The text below walks through data of paper PMC2064651.

The test deals with ADP/ATP carrier (S. cerevisiae (endogenous in strain GA74)) (UniProt P18239). The test is described as follows: native gel or EMSA. For orientation: Mobility shift assays separate free from complexed probe on a gel.

Turning to “ADP/ATP carrier (from UniProt P18239 1-318) (natural protein)”, the stoichiometry N (in general, the number of molecules, sites or subunits per partner or assembly) stood at 2.
